Target: WT‐EsxB (Bacillus anthracis)
Experiment: SEC

## WT‐EsxB (natural protein)
  stoichiometry N: 4
